The values below come from the RNAGym collection of RNA variant scans (doi:10.7554/elife.80360).

First the molecules themselves.
B1: Hammerhead Ribozyme (parent)
chain: ACCGGAUGUGCUUUCCGGUCUGAUGAGUCCGUGAGGACGAAACAG

This series covers variants of B1. Briefly: self-cleavage, relative activity (ratio to wild type); higher = more cleavage; co-transcriptional.
Take A41G A42C: the self-cleavage is 0.294. A41G A42U: the self-cleavage amounted to 0.335. On to A41G A42G, for which the self-cleavage is 0.335. Consider A41U A44G, for which the self-cleavage stood at 0.759. Turning to A41U A44U, the self-cleavage was determined as 0.378.

Take A41U A44C: the self-cleavage is 0.377. Take A40U C43U: the self-cleavage turned out to be 0.336. For A40U C43A, the self-cleavage was 0.344.

As to A40U C43G, the self-cleavage came out at 0.287. Next, A44G: 1.53. Turning to A44U, the self-cleavage is 0.756.

With A44C, the self-cleavage worked out at 0.663. Regarding C38U A42C, the self-cleavage was 0.396.

With C38U A42U, the self-cleavage came to 0.317. Turning to C38U A42G, the self-cleavage turned out to be 0.34.

For the variant A41C C43A, the self-cleavage was found to be 0.361. Regarding A41C C43U, the self-cleavage was determined as 0.316. As to A41C C43G, the self-cleavage stood at 0.408. In the case of A40U A41C, the self-cleavage is 0.275. Take A40U A41G: the self-cleavage was 0.27. For the variant A40U A41U, the self-cleavage stood at 0.439. Turning to A37U A42U, the self-cleavage stood at 0.327.

For the variant A37U A42G, the self-cleavage was 0.271. With A37U A42C, the self-cleavage came to 0.304. Turning to A42G C43A, the self-cleavage was 0.309.

A42G C43U: the self-cleavage was determined as 0.326.

For A42G C43G, the self-cleavage was determined as 0.308. Consider C38G A41C, for which the self-cleavage was 0.298. With C38G A41U, the self-cleavage amounted to 0.316. In the case of C38G A41G, the self-cleavage was found to be 0.404. On to C38U A44G, for which the self-cleavage stood at 1.44.

Turning to C38U A44U, the self-cleavage worked out at 0.648. As to C38U A44C, the self-cleavage is 0.596. As for C38G A42U, the self-cleavage came out at 0.354. As to C38G A42G, the self-cleavage came out at 0.321. Regarding C38G A42C, the self-cleavage was determined as 0.226.

In the case of C38A A41U, the self-cleavage is 0.336. On to C38A A41C, for which the self-cleavage is 0.287. Turning to C38A A41G, the self-cleavage turned out to be 0.338.

Regarding C38A G45U, the self-cleavage is 0.461.

C38A G45C: the self-cleavage came to 0.344. The same measure for C38A G45A: 0.464; for G39C C43G: 0.384. For G39C C43U, the self-cleavage stood at 0.368. Take G39C C43A: the self-cleavage worked out at 0.336.

As for C38A A44G, the self-cleavage is 0.862. The same measure for C38A A44C: 0.405; for C38A A44U: 0.396; for A40C G45A: 0.431. In the case of A40C G45C, the self-cleavage is 0.399. The same measure for A40C G45U: 0.431; for G39A C43G: 0.264.

G39A C43A: the self-cleavage came out at 0.284.

As to G39A C43U, the self-cleavage was 0.341. On to G39U A42C, for which the self-cleavage worked out at 0.353. Next, G39U A42U: 0.39; G39U A42G: 0.342. A42U G45U: the self-cleavage is 0.427.

In the case of A42U G45C, the self-cleavage is 0.404. Next, A42U G45A: 0.374; A42C G45U: 0.421. On to A42C G45A, for which the self-cleavage amounted to 0.539. On to A42C G45C, for which the self-cleavage amounted to 0.451. A40C C43G: the self-cleavage is 0.33. As for A40C C43A, the self-cleavage was 0.299. Regarding A40C C43U, the self-cleavage came to 0.347. Take A40G A44C: the self-cleavage was 0.304. In the case of A40G A44G, the self-cleavage amounted to 0.571. As for A40G A44U, the self-cleavage was determined as 0.254.

As for A40U A42C, the self-cleavage turned out to be 0.369. The same measure for A40U A42U: 0.367; for A40U A42G: 0.261.

For the variant G39U A40U, the self-cleavage is 0.307. The same measure for G39U A40C: 0.295; for G39U A40G: 0.361. The same measure for A37U A41U: 0.307; for A37U A41C: 0.34. Regarding A37U A41G, the self-cleavage was found to be 0.406. As to G39U G45A, the self-cleavage amounted to 0.351.

With G39U G45U, the self-cleavage was found to be 0.445.

In the case of G39U G45C, the self-cleavage came out at 0.408. Take A42C A44C: the self-cleavage was 0.262. Turning to A42C A44U, the self-cleavage was 0.351.

As for A42C A44G, the self-cleavage worked out at 1.06. As to A40C A41U, the self-cleavage is 0.441. For A40C A41G, the self-cleavage worked out at 0.307. For the variant A40C A41C, the self-cleavage was 0.385. Next, A37U C43A: 0.31; A37U C43G: 0.271; A37U C43U: 0.38. Regarding C38U C43A, the self-cleavage is 0.414. The same measure for C38U C43U: 0.34. Next, C38U C43G: 0.321. In the case of A37U, the self-cleavage was found to be 0.799. The same measure for G39A A42G: 0.319; for G39A A42C: 0.369. For the variant G39A A42U, the self-cleavage worked out at 0.348.

As to C38U G39U, the self-cleavage worked out at 0.3.

In the case of C38U G39A, the self-cleavage is 0.363.

As to C38U G39C, the self-cleavage is 0.584. Turning to A41G G45U, the self-cleavage was found to be 0.407.

With A41G G45C, the self-cleavage was found to be 0.402. The same measure for A41G G45A: 0.25; for A40C A44U: 0.347; for A40C A44C: 0.396. In the case of A40C A44G, the self-cleavage came to 0.69. In the case of A37G C38U, the self-cleavage was determined as 0.534. As to A37G C43A, the self-cleavage was determined as 0.332. As for A37G C43U, the self-cleavage was 0.33.

As to A37G C43G, the self-cleavage is 0.385. With G39C G45C, the self-cleavage came out at 0.368. As for G39C G45U, the self-cleavage is 0.328. For the variant G39C G45A, the self-cleavage was found to be 0.359. For the variant C43G A44C, the self-cleavage was determined as 0.464.

Regarding C43G A44G, the self-cleavage was determined as 0.934. Next, C43G A44U: 0.359; C38U G45U: 0.593. On to C38U G45C, for which the self-cleavage was found to be 0.529.

Take C38U G45A: the self-cleavage came out at 0.689.

Take A41C A42G: the self-cleavage came out at 0.276. The same measure for A41C A42C: 0.375; for A41C A42U: 0.235. Consider A37U G45A, for which the self-cleavage was 0.468. A37U G45U: the self-cleavage is 0.48. With A37U G45C, the self-cleavage was 0.363. With A41G C43U, the self-cleavage is 0.366. In the case of A41G C43G, the self-cleavage came out at 0.346. On to A41G C43A, for which the self-cleavage came to 0.317.

With C43U G45A, the self-cleavage is 0.419. Regarding C43U G45C, the self-cleavage was 0.451. Next, C43U G45U: 0.423; C43U: 0.608; C43G: 0.406. Take C43A: the self-cleavage was 0.375. Take A42U C43A: the self-cleavage was found to be 0.344. For the variant A42U C43G, the self-cleavage was found to be 0.255. Regarding A42U C43U, the self-cleavage amounted to 0.247.

On to A41G A44C, for which the self-cleavage came to 0.391. With A41G A44G, the self-cleavage came out at 0.692. The same measure for A41G A44U: 0.322; for C38A A40C: 0.411; for C38A A40U: 0.307. Regarding C38A A40G, the self-cleavage worked out at 0.369.

A40G A41U: the self-cleavage amounted to 0.31. Next, A40G A41C: 0.341; A40G A41G: 0.346.

Consider G39U C43A, for which the self-cleavage was found to be 0.312. Turning to G39U C43G, the self-cleavage came to 0.298.

Turning to G39U C43U, the self-cleavage was determined as 0.371. As to C38U A40C, the self-cleavage came out at 0.598.

Take C38U A40G: the self-cleavage was 0.37.

C38U A40U: the self-cleavage stood at 0.348. As to A37G G45A, the self-cleavage is 0.486. A37G G45C: the self-cleavage came out at 0.416. Take A37G G45U: the self-cleavage amounted to 0.567. Consider G39C A44C, for which the self-cleavage stood at 0.437. On to G39C A44U, for which the self-cleavage was determined as 0.415. In the case of G39C A44G, the self-cleavage turned out to be 0.638. As to A40U G45U, the self-cleavage was determined as 0.398. Turning to A40U G45A, the self-cleavage was 0.343. Regarding A40U G45C, the self-cleavage turned out to be 0.458.

As for A41U A42G, the self-cleavage came to 0.35. As to A41U A42U, the self-cleavage came to 0.244.

Consider A41U A42C, for which the self-cleavage was found to be 0.271. In the case of A41U C43G, the self-cleavage amounted to 0.332. With A41U C43A, the self-cleavage came out at 0.321. A41U C43U: the self-cleavage worked out at 0.362.
